Measured values from article PMC6504876, “TFIIE orchestrates the recruitment of the TFIIH kinase module at promoter before release during transcription” (Nature Communications, 2019).

B5: Flag-TFIIEα (natural protein, UniProt P29083 1-439, looked up)
chain: MADPDVLTEVPAALKRLAKYVIRGFYGIEHALALDILIRNSCVKEEDMLELLKFDRKQLRSVLNNLKGDKFIKCRMRVETAADGKTTRHNYYFINYRTLVNVVKYKLDHMRRRIETDERDSTNRASFKCPVCSSTFTDLEANQLFDPMTGTFRCTFCHTEVEEDESAMPKKDARTLLARFNEQIEPIYALLRETEDVNLAYEILEPEPTEIPALKQSKDHAATTAGAASLAGGHHREAWATKGPSYEDLYTQNVVINMDDQEDLHRASLEGKSAKERPIWLRESTVQGAYGSEDMKEGGIDMDAFQEREEGHAGPDDNEEVMRALLIHEKKTSSAMAGSVGAAAPVTAANGSDSESETSESDDDSPPRPAAVAVHKREEDEEEDDEFEEVADDPIVMVAGRPFSYSEVSQRPELVAQMTPEEKEAYIAMGQRMFEDLFE
notes: TFIIEα, the α subunit of the general transcription factor TFIIE; The methods name an anti-Flag-Tag antibody among those used for the co-immunoprecipitations; also called rIIEα/WT; the α subunit of rIIEαβ; source: E. coli, purified; alone or co-produced with rIIEβ

Key:
Details in all cases: both partners purified
Flag-XPD/WT = target: T1, Flag-XPD/WT (UniProt P18074 1-760); assay: co-IP; purified rIIH with XPD/WT, /R112H or /R722W immunoprecipitated with anti-XPD and incubated at 150 and 500 mM KCl; blots for XPB, XPD, CDK7 (Fig. 3f)
T1 construct: XPD subunit of TFIIH; also called the XPD subunit of rIIH/WT; source: Sf21 insect cells infected with baculoviruses for all TFIIH subunits

Flag-TFIIEα = target: B5; assay: co-IP; rIIEα/WT co-produced with rIIEβ/WT, /A150P or /D187Y, immunoprecipitated at 150 and 500 mM KCl; blots for IIEα and IIEβ (Fig. 3e)
[1] = target: T2, recombinant TFIIH (rIIH/WT) (UniProt P18074 1-760; P19447 1-782; P32780 1-548; Q92759 1-462; Q13888 1-395; Q13889 …); assay: co-IP; rIIH/WT immunoprecipitated with anti-p62 (protein G magnetic beads) and incubated with rIIEαβ (α and β added together as the co-produced rIIE), washes at 150 and 500 mM KCl; blots with anti-XPB, anti-IIEα, anti-IIEβ (Fig. 3b)
T2 construct: XPD subunit of TFIIH; XPB subunit of TFIIH; p62 subunit of TFIIH; p52 subunit of TFIIH; p44 subunit of TFIIH; p34 subunit of TFIIH; p8 (TTDA, TTD-A) subunit of TFIIH; cdk7 (CDK7 kinase), CAK subunit of TFIIH; cyclin H, CAK subunit of TFIIH; MAT1, CAK subunit of TFIIH; also called rIIH-XPD/WT; TFIIH/WT; copies: + + + + + + + + +

B1: CDK7 (natural protein, UniProt P50613 1-346, looked up)
chain: MALDVKSRAKRYEKLDFLGEGQFATVYKARDKNTNQIVAIKKIKLGHRSEAKDGINRTALREIKLLQELSHPNIIGLLDAFGHKSNISLVFDFMETDLEVIIKDNSLVLTPSHIKAYMLMTLQGLEYLHQHWILHRDLKPNNLLLDENGVLKLADFGLAKSFGSPNRAYTHQVVTRWYRAPELLFGARMYGVGVDMWAVGCILAELLLRVPFLPGDSDLDQLTRIFETLGTPTEEQWPDMCSLPDYVTFKSFPGIPLHHIFSAAGDDLLDLIQGLFLFNPCARITATQALKMKYFSNRPGPTPGCQLPRPNCPVETLKEQSNPALAIKRKRTEALEQGGLPKKLIF
notes: CDK7 kinase, CAK subunit of TFIIH; It stood in the assay together with the other TFIIH subunits; also called CDK7 kinase of the CAK; source: Sf21 insect cells infected with baculoviruses for all TFIIH subunits; in whole cell extract, and purified within rIIH through Flag-XPD
Flag-XPD/WT
  binding result: binds

B2: His-TFIIEβ/WT (natural protein, UniProt P29084 1-291, looked up)
chain: MDPSLLRERELFKKRALSTPVVEKRSASSESSSSSSKKKKTKVEHGGSSGSKQNSDHSNGSFNLKALSGSSGYKFGVLAKIVNYMKTRHQRGDTHPLTLDEILDETQHLDIGLKQKQWLMTEALVNNPKIEVIDGKYAFKPKYNVRDKKALLRLLDQHDQRGLGGILLEDIEEALPNSQKAVKALGDQILFVNRPDKKKILFFNDKSCQFSVDEEFQKLWRSVTVDSMDEEKIEEYLKRQGISSMQESGPKKVAPIQRRKKPASQKKRRFKTHNEHLAGVLKDYSDITSSK
notes: TFIIEβ, the β subunit of the general transcription factor TFIIE, encoded by GTF2E2; also called rIIEβ/WT; the β subunit of rIIEαβ/WT; source: E. coli, purified; alone or co-produced with rIIEα/WT
Flag-TFIIEα
  binding result: binds
[1]
  binding result: binds

B3: His-TFIIEβ/A150P (natural protein, UniProt P29084 1-291, looked up)
chain: MDPSLLRERELFKKRALSTPVVEKRSASSESSSSSSKKKKTKVEHGGSSGSKQNSDHSNGSFNLKALSGSSGYKFGVLAKIVNYMKTRHQRGDTHPLTLDEILDETQHLDIGLKQKQWLMTEALVNNPKIEVIDGKYAFKPKYNVRDKKPLLRLLDQHDQRGLGGILLEDIEEALPNSQKAVKALGDQILFVNRPDKKKILFFNDKSCQFSVDEEFQKLWRSVTVDSMDEEKIEEYLKRQGISSMQESGPKKVAPIQRRKKPASQKKRRFKTHNEHLAGVLKDYSDITSSK
notes: TFIIEβ with the trichothiodystrophy patient mutation c.448G>C [p.Ala150Pro]; The mutation is found in TTD patients; also called rIIEβ/A150P; the β subunit of rIIEαβ/A150P; source: E. coli, co-produced with rIIEα/WT, purified
Flag-TFIIEα
  binding result: binds
[1]
  binding result: binds

B4: His-TFIIEβ/D187Y (natural protein, UniProt P29084 1-291, looked up)
chain: MDPSLLRERELFKKRALSTPVVEKRSASSESSSSSSKKKKTKVEHGGSSGSKQNSDHSNGSFNLKALSGSSGYKFGVLAKIVNYMKTRHQRGDTHPLTLDEILDETQHLDIGLKQKQWLMTEALVNNPKIEVIDGKYAFKPKYNVRDKKALLRLLDQHDQRGLGGILLEDIEEALPNSQKAVKALGYQILFVNRPDKKKILFFNDKSCQFSVDEEFQKLWRSVTVDSMDEEKIEEYLKRQGISSMQESGPKKVAPIQRRKKPASQKKRRFKTHNEHLAGVLKDYSDITSSK
notes: TFIIEβ with the trichothiodystrophy patient mutation D187Y; The mutation is found in TTD patients; also called rIIEβ/D187Y; the β subunit of rIIEαβ/D187Y; source: E. coli, co-produced with rIIEα/WT, purified
Flag-TFIIEα
  binding result: binds
[1]
  binding result: binds

## B5
[1]
  binding result: binds
